This test deals with IFT140 with C-terminal TEV site and Strep-tag II (IFT140^Strep) (human, UniProt Q96RY7 1-1462). The test is described as follows: pull-down.
Sequence of IFT140 with C-terminal TEV site and Strep-tag II (IFT140^Strep) (Q96RY7 whole entry): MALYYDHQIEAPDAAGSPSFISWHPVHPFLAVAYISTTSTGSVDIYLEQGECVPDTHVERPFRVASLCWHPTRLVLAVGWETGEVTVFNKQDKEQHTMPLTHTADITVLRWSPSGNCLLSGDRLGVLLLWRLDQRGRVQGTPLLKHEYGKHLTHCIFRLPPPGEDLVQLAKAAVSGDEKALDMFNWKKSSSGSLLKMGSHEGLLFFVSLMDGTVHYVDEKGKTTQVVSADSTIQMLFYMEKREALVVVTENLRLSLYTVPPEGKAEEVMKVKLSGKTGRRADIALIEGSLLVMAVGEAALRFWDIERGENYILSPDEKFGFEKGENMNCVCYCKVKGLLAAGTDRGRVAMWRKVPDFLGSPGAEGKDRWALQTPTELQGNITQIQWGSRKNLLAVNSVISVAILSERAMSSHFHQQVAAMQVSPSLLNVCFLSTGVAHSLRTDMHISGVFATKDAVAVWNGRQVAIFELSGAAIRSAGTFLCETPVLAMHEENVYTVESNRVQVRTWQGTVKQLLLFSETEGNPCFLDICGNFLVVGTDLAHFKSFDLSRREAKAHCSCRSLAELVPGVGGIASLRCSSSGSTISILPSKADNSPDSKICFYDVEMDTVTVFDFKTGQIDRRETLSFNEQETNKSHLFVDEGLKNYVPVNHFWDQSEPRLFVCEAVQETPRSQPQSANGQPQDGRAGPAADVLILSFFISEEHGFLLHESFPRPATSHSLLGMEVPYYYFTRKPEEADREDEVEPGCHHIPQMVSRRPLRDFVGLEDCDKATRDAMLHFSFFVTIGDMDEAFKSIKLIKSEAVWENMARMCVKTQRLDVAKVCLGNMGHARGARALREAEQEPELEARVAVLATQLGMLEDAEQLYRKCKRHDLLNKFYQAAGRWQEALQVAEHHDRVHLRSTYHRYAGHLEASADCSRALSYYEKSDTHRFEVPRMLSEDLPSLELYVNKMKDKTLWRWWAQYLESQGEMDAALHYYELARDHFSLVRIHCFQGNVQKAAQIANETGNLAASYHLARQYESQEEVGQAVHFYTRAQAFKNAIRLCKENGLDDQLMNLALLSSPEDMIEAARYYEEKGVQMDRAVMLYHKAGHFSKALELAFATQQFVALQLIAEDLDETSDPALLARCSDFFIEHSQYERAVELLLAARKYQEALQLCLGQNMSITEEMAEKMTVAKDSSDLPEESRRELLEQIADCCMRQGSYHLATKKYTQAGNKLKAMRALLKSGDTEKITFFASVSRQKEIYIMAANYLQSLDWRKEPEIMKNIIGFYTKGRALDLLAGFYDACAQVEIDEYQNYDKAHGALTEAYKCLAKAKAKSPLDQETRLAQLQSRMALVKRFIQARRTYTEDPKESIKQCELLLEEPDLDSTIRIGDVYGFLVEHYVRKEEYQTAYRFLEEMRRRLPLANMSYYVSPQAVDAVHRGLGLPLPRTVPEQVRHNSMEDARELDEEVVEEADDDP

B1: IFT144 with C-terminal TEV site and FLAG tag (IFT144^FLAG) (natural protein, human, UniProt Q8NEZ3 1-1342, looked up)
chain: MKRIFSLLEKTWLGAPIQFAWQKTSGNYLAVTGADYIVKIFDRHGQKRSEINLPGNCVAMDWDKDGDVLAVIAEKSSCIYLWDANTNKTSQLDNGMRDQMSFLLWSKVGSFLAVGTVKGNLLIYNHQTSRKIPVLGKHTKRITCGCWNAENLLALGGEDKMITVSNQEGDTIRQTQVRSEPSNMQFFLMKMDDRTSAAESMISVVLGKKTLFFLNLNEPDNPADLEFQQDFGNIVCYNWYGDGRIMIGFSCGHFVVISTHTGELGQEIFQARNHKDNLTSIAVSQTLNKVATCGDNCIKIQDLVDLKDMYVILNLDEENKGLGTLSWTDDGQLLALSTQRGSLHVFLTKLPILGDACSTRIAYLTSLLEVTVANPVEGELPITVSVDVEPNFVAVGLYHLAVGMNNRAWFYVLGENAVKKLKDMEYLGTVASICLHSDYAAALFEGKVQLHLIESEILDAQEERETRLFPAVDDKCRILCHALTSDFLIYGTDTGVVQYFYIEDWQFVNDYRHPVSVKKIFPDPNGTRLVFIDEKSDGFVYCPVNDATYEIPDFSPTIKGVLWENWPMDKGVFIAYDDDKVYTYVFHKDTIQGAKVILAGSTKVPFAHKPLLLYNGELTCQTQSGKVNNIYLSTHGFLSNLKDTGPDELRPMLAQNLMLKRFSDAWEMCRILNDEAAWNELARACLHHMEVEFAIRVYRRIGNVGIVMSLEQIKGIEDYNLLAGHLAMFTNDYNLAQDLYLASSCPIAALEMRRDLQHWDSALQLAKHLAPDQIPFISKEYAIQLEFAGDYVNALAHYEKGITGDNKEHDEACLAGVAQMSIRMGDIRRGVNQALKHPSRVLKRDCGAILENMKQFSEAAQLYEKGLYYDKAASVYIRSKNWAKVGDLLPHVSSPKIHLQYAKAKEADGRYKEAVVAYENAKQWQSVIRIYLDHLNNPEKAVNIVRETQSLDGAKMVARFFLQLGDYGSAIQFLVMSKCNNEAFTLAQQHNKMEIYADIIGSEDTTNEDYQSIALYFEGEKRYLQAGKFFLLCGQYSRALKHFLKCPSSEDNVAIEMAIETVGQAKDELLTNQLIDHLLGENDGMPKDAKYLFRLYMALKQYREAAQTAIIIAREEQSAGNYRNAHDVLFSMYAELKSQKIKIPSEMATNLMILHSYILVKIHVKNGDHMKGARMLIRVANNISKFPSHIVPILTSTVIECHRAGLKNSAFSFAAMLMRPEYRSKIDAKYKKKIEGMVRRPDISEIEEATTPCPFCKFLLPECELLCPGCKNSIPYCIATGRHMLKDDWTVCPHCDFPALYSELKIMLNTESTCPMCSERLNAAQLKKISDCTQYLRTEEEL
For the molecule B1, the binding result is recorded as “binds”.

These data come from publication doi:10.1101/2022.08.09.503213 (bioRxiv, 2022).
